The assay deals with DP10.7 TCR (Vγ4Vδ1), soluble recombinant γδ TCR (human). Put plainly: SPR. A general note: Surface plasmon resonance follows binding to a sensor surface in real time, without labels.

Some results are limits rather than exact numbers.

On to “soluble, recombinant human CD1d (heterodimer with β2-microglobulin) (from UniProt P15813 20-301; P61769 21-119) (complex)”, for which the KD without sulfatide (CD1d loaded with 24:1 βGalCer) is more than 100 µM.

Values taken from paper PMC3875342.
